Key:
human CCR8 [1] = biological target: T1, human CCR8 (human, UniProt P51685 1-355); experiment: flow blocking, PBMC CCR8+CD3+; competitor PE-AB15
T1 construct: Native CCR8 on human PBMC (CCR8+ CD3+ or CCR8+ CD4+ lymphocytes); also called chemokine (C-C motif) receptor 8
Method: (§1) For blocking studies, 100 μL of the cell suspension were incubated with 10 μg purified isotype control, AB1, AB2, AB3, AB4, AB5, AB8, AB9, AB10, AB11, AB12, AB13, AB14, AB15, and Commercial ABI antibodies, or isotype control, as blocking agents.
(§2) After incubation with the blocking agent, the cells were incubated with 0.25 μg of the indicated PE-conjugated antibody plus anti-human CD4 APC or anti-human CD3 for another 15 minutes in the dark and then washed 2 times with Cell Staining Buffer, and acquired in a FACSCanto II flow cytometer (BD Biosciences); the data was analyzed using FCS Express (De Novo Software); MFI correspond to the CCR8+ CD4+ lymphocytes or CCR8+ CD3+ lymphocytes.
(§3) Percentage original MFI was calculated by dividing the MFI of samples blocked with AB1, AB2, AB3, AB4, AB5, AB6, AB7, AB8, AB9, AB10, AB11, AB12, AB13, AB14, AB15, and Commercial ABI antibodies, by the MFI of samples blocked with the corresponding isotype control. This value was subtracted from 100 to get a blocking percentage. The formula is shown below: […]

human CCR8 [2] = biological target: T1, human CCR8; experiment: flow blocking, PBMC CCR8+CD3+; competitor PE-AB12
Method: as §1, §2, §3

human CCR8 [3] = biological target: T1, human CCR8; experiment: flow blocking, PBMC CCR8+CD4+; competitor PE-AB6
Method: as §1, §2

human CCR8 [4] = biological target: T1, human CCR8; experiment: flow blocking, PBMC CCR8+CD4+; competitor PE-AB10
Method: as §1, §2, §3

human CCR8 [5] = biological target: T1, human CCR8; experiment: flow blocking, PBMC CCR8+CD3+; competitor PE-L263G8
Method: as §1, §2, §3

human CCR8 [6] = biological target: T1, human CCR8; experiment: flow blocking, PBMC CCR8+CD4+; competitor PE-AB4
Method: as §1, §2, §3

human CCR8 [7] = biological target: T1, human CCR8; experiment: flow blocking, PBMC CCR8+CD4+; competitor PE-AB15
Method: as §1, §2, §3

human CCR8 [8] = biological target: T1, human CCR8; experiment: flow blocking, PBMC CCR8+CD3+; competitor PE-AB13
Method: as §1, §2, §3

human CCR8 [9] = biological target: T1, human CCR8; experiment: flow blocking, PBMC CCR8+CD4+; competitor PE-AB13
Method: as §1, §2

human CCR8 [10] = biological target: T1, human CCR8; experiment: flow blocking, PBMC CCR8+CD3+; competitor PE-AB10
Method: as §1, §2, §3

human CCR8 [11] = biological target: T1, human CCR8; experiment: flow blocking, PBMC CCR8+CD3+; competitor PE-AB7
Method: as §1, §2, §3

human CCR8 [12] = biological target: T1, human CCR8; experiment: flow blocking, PBMC CCR8+CD4+; competitor PE-AB14
Method: as §1, §2

human CCR8 [13] = biological target: T1, human CCR8; experiment: flow blocking, PBMC CCR8+CD3+; competitor PE-AB14
Method: as §1, §2, §3

human CCR8 [14] = biological target: T1, human CCR8; experiment: flow blocking, PBMC CCR8+CD4+; competitor PE-AB5
Method: as §1, §2, §3

human CCR8 [15] = biological target: T1, human CCR8; experiment: flow blocking, PBMC CCR8+CD4+; competitor PE-AB1
Method: as §1, §2, §3

human CCR8 [16] = biological target: T1, human CCR8; experiment: flow blocking, PBMC CCR8+CD4+; competitor PE-AB3
Method: as §1, §2, §3

human CCR8 [17] = biological target: T1, human CCR8; experiment: flow blocking, PBMC CCR8+CD3+; competitor PE-AB5
Method: as §1, §2, §3

human CCR8 [18] = biological target: T1, human CCR8; experiment: flow blocking, PBMC CCR8+CD4+; competitor PE-AB2
Method: as §1, §2, §3

human CCR8 [19] = biological target: T1, human CCR8; experiment: flow blocking, PBMC CCR8+CD3+; competitor PE-433H
Method: as §1, §2, §3

human CCR8 [20] = biological target: T1, human CCR8; experiment: flow blocking, PBMC CCR8+CD3+; competitor PE-AB6
Method: as §1, §2, §3

human CCR8 [21] = biological target: T1, human CCR8; experiment: flow blocking, PBMC CCR8+CD3+; competitor PE-AB8
Method: as §1, §2, §3

human CCR8 [22] = biological target: T1, human CCR8; experiment: flow blocking, PBMC CCR8+CD3+; competitor PE-AB11
Method: as §1, §2, §3

human CCR8 [23] = biological target: T1, human CCR8; experiment: flow blocking, PBMC CCR8+CD4+; competitor PE-AB12
Method: as §1, §2, §3

human CCR8 [24] = biological target: T1, human CCR8; experiment: flow blocking, PBMC CCR8+CD4+; competitor PE-AB11
Method: as §1, §2, §3

human CCR8 [25] = biological target: T1, human CCR8; experiment: flow blocking, PBMC CCR8+CD4+; competitor PE-433H
Method: as §1, §2

T1 sequence (P51685 whole entry): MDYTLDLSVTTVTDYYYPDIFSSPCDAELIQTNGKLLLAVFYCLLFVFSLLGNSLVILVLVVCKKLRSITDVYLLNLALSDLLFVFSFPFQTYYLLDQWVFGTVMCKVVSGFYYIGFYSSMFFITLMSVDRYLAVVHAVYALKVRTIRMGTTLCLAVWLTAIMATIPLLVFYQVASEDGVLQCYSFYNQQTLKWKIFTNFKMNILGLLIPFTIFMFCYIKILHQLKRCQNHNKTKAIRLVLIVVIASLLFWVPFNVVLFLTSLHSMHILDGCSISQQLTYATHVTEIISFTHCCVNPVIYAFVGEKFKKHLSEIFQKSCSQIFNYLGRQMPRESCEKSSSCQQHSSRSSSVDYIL

B1: AB5 (antibody, V domains shown)
VH: QVQLKESGPGLVQPSQTLSLTCTVSGFSLTSYHVSWVRQPPGKGLEWMGVIWTGGSTTYNSLLKSRLSISRDISKSQVFLKMNSLQTEDTATYYCARGGTVVKGGFAYWGQGTLVTVSS
VL: DIQMTQSPASLSASLEEIVTITCQASQDIGNRLSWYQQKPGKSPQLLIYGATSLADGVPSRFSGSRSGTQYSLKISRLQVEDIGIYYCLQAYSTPLTFGSGTKLEIK
notes: Hybridoma monoclonal; Same VH/VL entries as AB6; also called antibody 5; clone 5
- % Blocking (human CCR8 [1]): -1.63%
- MFI (human CCR8 [1]): 873
- % Blocking (human CCR8 [2]): -11.3%
- MFI (human CCR8 [2]): 1140
- % Blocking (human CCR8 [3]): 95.5%
- % Positive cells (human CCR8 [3]): 0.09%
- % Blocking (human CCR8 [4]): 5.41%
- % Positive cells (human CCR8 [4]): 1.4%
- % Blocking (human CCR8 [5]): -14.2%
- MFI (human CCR8 [5]): 769
- % Blocking (human CCR8 [6]): 93.3%
- % Positive cells (human CCR8 [6]): 0.12%
- % Blocking (human CCR8 [7]): -29.5%
- % Positive cells (human CCR8 [7]): 1.67%
- % Blocking (human CCR8 [8]): -7.01%
- MFI (human CCR8 [8]): 947
- % Blocking (human CCR8 [9]): 27.8%
- % Positive cells (human CCR8 [9]): 1.43%
- % Blocking (human CCR8 [10]): -20.7%
- MFI (human CCR8 [10]): 962
- % Blocking (human CCR8 [11]): -3.38%
- MFI (human CCR8 [11]): 1210
- % Blocking (human CCR8 [12]): -25.4%
- % Positive cells (human CCR8 [12]): 1.63%
- % Blocking (human CCR8 [13]): 0.46%
- MFI (human CCR8 [13]): 860
- % Blocking (human CCR8 [14]): 91.1%
- % Positive cells (human CCR8 [14]): 0.18%
- % Blocking (human CCR8 [15]): 72.3%
- % Positive cells (human CCR8 [15]): 0.43%
- % Blocking (human CCR8 [16]): 95.9%
- % Positive cells (human CCR8 [16]): 0.07%
- % Blocking (human CCR8 [17]): 14.8%
- MFI (human CCR8 [17]): 840
- % Blocking (human CCR8 [18]): 98.8%
- % Positive cells (human CCR8 [18]): 0.02%
- % Blocking (human CCR8 [19]): -5.58%
- MFI (human CCR8 [19]): 936
- % Blocking (human CCR8 [20]): 37.3%
- MFI (human CCR8 [20]): 579
- % Blocking (human CCR8 [21]): 5.47%
- MFI (human CCR8 [21]): 1120
- % Blocking (human CCR8 [22]): -9.7%
- MFI (human CCR8 [22]): 1020
- % Blocking (human CCR8 [23]): 0%
- % Positive cells (human CCR8 [23]): 1.8%
- % Blocking (human CCR8 [24]): -6.12%
- % Positive cells (human CCR8 [24]): 2.08%
- % Blocking (human CCR8 [25]): 12.5%
- % Positive cells (human CCR8 [25]): 1.54%

Reference: patent US20240360228A1 (BIOLEGEND, published 2024)
